Target: T1, TNF-β (lymphotoxin) (UniProt P01374 35-205, limits assumed)
T1 sequence (looked up): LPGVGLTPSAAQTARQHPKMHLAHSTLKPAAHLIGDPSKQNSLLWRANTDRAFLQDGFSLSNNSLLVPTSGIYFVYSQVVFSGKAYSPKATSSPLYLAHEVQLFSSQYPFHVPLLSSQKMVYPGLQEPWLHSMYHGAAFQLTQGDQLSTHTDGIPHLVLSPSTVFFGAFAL
Assay: preliminary competition binding tests; reference TNF-α

B1: TNF-BP (TNF binding protein), natural, purified from dialyzed urine of uraemia patients (receptor)
chain: DSVCPQGKYIHPQNNSICCTKCHKGTYLYNDCPGPGQDTDCRECESGSFTASENHLRHCLSCSKCRKEMGQVEISSCTVDRDTVCGCRKNQYRHYWSENLFQCFNCSLCLNGTVHLSCQEKQNTVCTCHAGFFLRENECVSCSNCKKSLECTKLCLPQIEN
modifications: glycoprotein; Asn-25 glycosylated (numbering of the TNF-BP cDNA sequence, Leu-1 = first residue after the signal peptide)
notes: Soluble extracellular part of the human TNF receptor; The main form (about 80% of the protein) starts at Asp-12; also called natural TNF-BP
  affinity for TNF-β relative to its affinity for TNF-α: ~0.02 fold

From US20020169118A1 (Amgen, published 2002)
